Literature values, collected in patent US8021659B2, “Coenzyme Q10, lactoferrin and angiogenin compositions and uses thereof” (Naidu LP, priority 2006, dated 2011).

Assays:
osteoblasts = settings: up to

B1: LF: 79-kDa glycoprotein present in every mucosal secretion of the human body; metal-transport protein (protein, UniProt P02788 20-710, looked up)
Lactotransferrin: GRRRSVQWCAVSQPEATKCFQWQRNMRKVRGPPVSCIKRDSPIQCIQAIAENRADAVTLDGGFIYEAGLAPYKLRPVAAEVYGTERQPRTHYYAVAVVKKGGSFQLNELQGLKSCHTGLRRTAGWNVPIGTLRPFLNWTGPPEPIEAAVARFFSASCVPGADKGQFPNLCRLCAGTGENKCAFSSQEPYFSYSGAFKCLRDGAGDVAFIRESTVFEDLSDEAERDEYELLCPDNTRKPVDKFKDCHLARVPSHAVVARSVNGKEDAIWNLLRQAQEKFGKDKSPKFQLFGSPSGQKDLLFKDSAIGFSRVPPRIDSGLYLGSGYFTAIQNLRKSEEEVAARRARVVWCAVGEQELRKCNQWSGLSEGSVTCSSASTTEDCIALVLKGEADAMSLDGGYVYTAGKCGLVPVLAENYKSQQSSDPDPNCVDRPVEGYLAVAVVRRSDTSLTWNSVKGKKSCHTAVDRTAGWNIPMGLLFNQTGSCKFDEYFSQSCAPGSDPRSNLCALCIGDEQGENKCVPNSNERYYGYTGAFRCLAENAGDVAFVKDVTVLQNTDGNNNEAWAKDLKLADFALLCLDGKRKPVTEARSCHLAMAPNHAVVSRMDKVERLKQVLLHQQAKFGRNGSDCPDKFCLFQSETKNLLFNDNTECLARLHGKTTYEKYLGPQYVAGITNLKKCSTSPLLEACEFLRK
In the case of B1, the “reduction of the rate at which osteoblasts die” value (osteoblasts) is given as 50-70%, the “time to peak level in plasma” value (absorption in the intestinal tract) is given as at most 2 h and the “mean fractional catabolic rate” value (elimination from the plasma by liver and spleen) is given as 5.7 day⁻¹.
